This note sets out measurements from article PMC12561408, “AI‐Driven De Novo Design of Ultra Long‐Acting GLP‐1 Receptor Agonists” (Advanced Science, 2025).

Holding throughout (assay): SPR
Holding throughout (details): both partners purified

In assay [1] the target is T1, GST-peptide fusion protein D13.
T1 construct: source: E. coli BL21 (DE3), GST-peptide fusion; not shown: GST, N-terminal, kept

Assay [2] deals with T2, GST-peptide fusion protein D41.
T2 construct: source: E. coli BL21 (DE3), GST-peptide fusion; not shown: GST, N-terminal, kept

Assay [3] addresses T3, GST-peptide fusion protein D44.
T3 construct: source: E. coli BL21 (DE3), GST-peptide fusion; not shown: GST, N-terminal, kept

B1: Human GLP-1R protein (receptor)
chain: RPQGATVSLWETVQKWREYRRQCQRSLTEDPPPATDLFCNRTFDEYACWPDGEPGSFVNVSCPWYLPWASSVPQGHVYRFCTAEGLWLQKDNSSLPWRDLSECEESKRGERSSPEE
Usually Kd stands for the concentration at which binding is half-saturated. A low value points to higher affinity. In the case of B1, the Kd was found to be 8.58 µM in assay [1], 5.19 µM in assay [2] and 6.78 µM in assay [3].
